# Measured values published in patent US12098186 (NATIONAL TECHNOLOGY AND ENGINEERING SOLUTIONS OF SANDIA, dated 2024).
# Where two headings read alike, the source gives them in different places.
# B1: SP1B4-U biparatopic nanobody construct (SP1B4 and U nanobodies on heterodimeric human IgG1 Fc) (bispecific antibody, V domains shown, not shown: a dimerising Fc or GST)
# V domain 1: EVQLQASGGGFVQPGGSLRLSCAASGRAFGIYRMGWFRQAPGKEREFVSAISGGDAGHTRYADSVKGRFTISRDNSKNTVYLQMNSLRAEDTATYYCAYWDYNGVVPFFKYWGQGTQVTVSS
# V domain 2: QVQLVESGGGLVQPGGSLRLSCAASGFTLDYYAIGWFRQAPGKEREGVSCISSSGGSTHFADSVKGRFTISRDNAKNTVYLQMNSLIPEDTAVYYCAAQSGSYYWCGSDWHEYEYWGQGTQVTVSS
# B2: SP1D9-U biparatopic nanobody construct (SP1D9 and U nanobodies on heterodimeric human IgG1 Fc) (bispecific antibody, V domains shown, not shown: a dimerising Fc or GST)
# V domain 1: EVQLQASGGGFVQPGGSLRLSCAASGRYDSYVRMGWFRQAPGKEREFVSAISGGGDKSTWYADSVKGRFTISRDNSKNTVYLQMNSLRAEDTATYYCANAQLGPAYDKIGYWGQGTQVTVSS
# V domain 2: B1 V domain 2
# B3: SP3H4-U biparatopic nanobody construct (SP3H4 and U nanobodies on heterodimeric human IgG1 Fc) (bispecific antibody, V domains shown, not shown: a dimerising Fc or GST)
# V domain 1: EVQLQASGGGFVQPGGSLRLSCAASGTAYGWSRMGWFRQAPGKEREFVSAISRASAGYAQYADSVKGRFTISRDNSKNTVYLQMNSLRAEDTATYYCAFPLHDQGEPYGWYWGQGTQVTVSS
# V domain 2: B1 V domain 2
# Columns and labels:
# [1] = target: T1, SARS-CoV-2 receptor-binding domain (RBD) of the spike protein (SARS-CoV-2, UniProt P0DTC2 319-541)
# [2] = target: T1, SARS-CoV-2 receptor-binding domain …; remark: listed apart in the source
# [3] = target: T1, SARS-CoV-2 receptor-binding domain …; experiment: cell-based or functional assay
# [4] = target: T1, SARS-CoV-2 receptor-binding domain …; remark: listed apart in the source
# [5] = target: T1, SARS-CoV-2 receptor-binding domain …; remark: listed apart in the source
Binder,Kd [1] [pM],Kd [2] [pM],Neutralization EC50 [3] [pM],Kd [4] [pM],Kd [5] [pM]
B1,2200,2200,25,–,–
B2,–,–,–,2000,–
B3,790,–,23,–,790
